Test results: patent publication CN115124620A (SHENGHE CHINA BIO PHARMACY CO LTD, dated 2022)

T1: 人NKp30-his蛋白(KACTUS;Cat:NKP-HM430) (human, UniProt O14931 19-135)
T1 construct: Bought protein; Molar concentration was calculated with 35 kDa; also called 重组人NKp30-his; 人NKp30蛋白; not shown: his tag
T1 sequence (looked up): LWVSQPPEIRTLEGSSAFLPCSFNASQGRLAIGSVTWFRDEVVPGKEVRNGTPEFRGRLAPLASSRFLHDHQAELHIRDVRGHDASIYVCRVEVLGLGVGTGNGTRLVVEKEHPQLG

B1: 抗体5 (antibody, V domains shown)
VH: VLILKESGGGLVKPGGSLKLSCAASGFAFSSYDMSWVRQTPEKRLEWVATISSGGSYTYYPDSVKGRFTISRDNARNTLYLQMSSLRSEDTALYYCARHFGDHDGYVMDYWGQGTSVIVSS
VL: DIVMTQSPSSLAMSLGQKVTMSCKSSQSLLNSSNQKSNLAWYQQKPGQSPKLLVYFASTRESGVPDRFIGSGSGTDFSLTIRSVQAEDLADYFCQQHYSTPFTFGSGTKLEIK
notes: Mouse hybridoma monoclonal antibody purified on Protein A; also called 鼠源抗NKp30抗体; NKp30 mAb
B2: 抗体6 (antibody, V domains shown)
VH: QVQLQQSGAELVRPGVSVKISCKGSGYTFTDYAMHWVKQSHAKSLEWIGIISTYYGDASYNQKFKGKATMTVDKSSSTAYMELARLTSEDSAIYYCARDYDNRYAAMDYWGQGTSVTVSS
VL: DIVMTQAAFSNPVTLGTSASISCRSSKSLLHSNGITYLYWYLQKPGQSPQLLIYQMSNLASGVPDRFSSSGSGTDFTLRISRVEAEDVGVYYCAQNLELPYTFGGGTKLEIK
notes: as for B1
B3: 抗体2 (antibody, V domains shown)
VH: EVQLQQFGAELVKPGASVKISCKASGYTFTDYNMDWVKQSHGKSLEWIAYINPNYEITTYNQKFKGKATLTVDKSSSTAYMELRSLTSEDTAVYYCARGRGGYDPAMDYWGQGTSVTVSS
VL: SIVMTQTPKFLLVSAGDRVTITCKASQSVSNDVTWSQQKPGQSPKLLIYYASNRYTGVPDRFTGSGYGTDFTFTISTVQAEDLAVYLCQQDNSTPPTFGAGTKLELK
notes: as for B1
B4: 抗体1 (antibody, V domains shown)
VH: QVQLQQPGAELVKPGASVKLSCKASGYTFTSYWMEWVKLRPGQGFDWIGEINPSNGGTNYNEKFKRKAILTVDKSSSAAYMQLSGLTSEDSAVYYCTIGGDYAWFAYWGQGTLVTVSA
VL: DIKMTQSPSSMYASLGERVTITCKASQDIKSYLSWYQQKPWKSPKTLIFYATSLADGVPSRFSASGSGQDYSLTISSLESDDTATYYCLQHGESPYTFGGGTKLEIK
notes: as for B1
B5: 抗体4 (antibody, V domains shown)
VH: EVQLVESGGGLVKPGGSLKLSCAASGFTFSDYGMSWIRQTPEKRLEWVASISSGGTYTYYPDSVKGRFTISRDSAKNTLYLQMNSLRSEDTAMYYCARRDGYYSVEYWGQGTSVTVSS
VL: QIVLTQSPAIMSASPGGEVTMTCSASSSVSFMHWYQQKSGTSPKRWIFDTSKLASGVPTRFSGSGSGTSYSLTISSMEAEDAATYYCQQWTTNPPTFGGGTKLEIK
notes: as for B1
B6: 抗体3 (antibody, V domains shown)
VH: QGQLQQSGAEVMKPGASVKISCKANGHTFGSYWIEWIKQRPGHGLEWIGEILPGSGSKKYNEKFEGKATFTEETSSNTAYMELTSLTSEDSAVYYCSRGGYYGSRFAYWGQGTLVTVSA
VL: DVVLTQTPLSLPVNIGDQASISCKSTKSLLNSDGFTYLDWYLQKPGQSPQLLIYLVSNRFSGVPDRFSGSGSGTDFTLKISRVEAEDLGVYYCFQSNYLPFTFGSGTKLEIK
notes: as for B1

Each binder was assayed against T1, 人NKp30-his蛋白(KACTUS;Cat:NKP-HM430) (assay: BLI (Octet Red96e), antibody captured on sensor, 100 nM human NKp30-his in solution, 1:1 model).
With B1 the Kd was 821 pM, the koff was 0.000552 s⁻¹ and the kon was 673000 M⁻¹ s⁻¹. Binder B2 has a Kd of 5430 pM, a koff of 0.00585 s⁻¹ and a kon of 1.08e+06 M⁻¹ s⁻¹. B3 showed a Kd of 197 pM, a koff of 0.000212 s⁻¹ and a kon of 1.08e+06 M⁻¹ s⁻¹. For B4, the Kd was 439 pM, the koff was 0.000708 s⁻¹ and the kon was 1.61e+06 M⁻¹ s⁻¹. B5 was tested, and the Kd was 846 pM, the koff was 0.000338 s⁻¹ and the kon was 399000 M⁻¹ s⁻¹. For B6, the Kd was 2030 pM, the koff was 0.00194 s⁻¹ and the kon was 959000 M⁻¹ s⁻¹.
